Consider three molecules from PMC6778065, “BIN1 recovers tauopathy-induced long-term memory deficits in mice and interacts with Tau through Thr^348 phosphorylation” (Acta Neuropathologica, 2019).

Square brackets hold non-standard residues; d marks the D form. Ends that are not written are not given here. pT = C[C@@H](OP(=O)(O)O)[C@H](N)C(=O)O

The target in experiment [1] is T1, BIN1-SH3 domain (UniProt O00499 520-593).
T1 construct: SH3 domain of BIN1 (Amphiphysin 2); residue 559 lies in it (isoform 1 numbering); 15N-labelled for NMR; also called 15N-BIN1 SH3
T1 sequence (looked up): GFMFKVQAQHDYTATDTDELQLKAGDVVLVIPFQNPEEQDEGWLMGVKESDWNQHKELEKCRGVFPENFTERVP
The experiment in a line: NMR titration; 100 µM 15N-labeled BIN1-SH3 domain titrated with aliquots of 4 mM unlabeled peptide; 1H-15N HSQC chemical shift changes fitted to the saturation equation; 20 °C, 50 mM sodium phosphate pH 7.3, 30 mM NaCl, 3 mM DTT, 10% D2O. Particulars: both partners purified.

In experiment [2] the target is T2, human Tau (MAPT transgene, hTau mouse hippocampus) (human, UniProt P10636-8 1-441).
T2 construct: human Tau from the human MAPT transgene Tg(MAPT)8cPdav; source: transgenic mouse (hTau; hTau;TgBIN1; no endogenous murine Mapt), hippocampus, fixed brain slices
T2 sequence (P10636 other isoform, or with tags, fused parts or gaps): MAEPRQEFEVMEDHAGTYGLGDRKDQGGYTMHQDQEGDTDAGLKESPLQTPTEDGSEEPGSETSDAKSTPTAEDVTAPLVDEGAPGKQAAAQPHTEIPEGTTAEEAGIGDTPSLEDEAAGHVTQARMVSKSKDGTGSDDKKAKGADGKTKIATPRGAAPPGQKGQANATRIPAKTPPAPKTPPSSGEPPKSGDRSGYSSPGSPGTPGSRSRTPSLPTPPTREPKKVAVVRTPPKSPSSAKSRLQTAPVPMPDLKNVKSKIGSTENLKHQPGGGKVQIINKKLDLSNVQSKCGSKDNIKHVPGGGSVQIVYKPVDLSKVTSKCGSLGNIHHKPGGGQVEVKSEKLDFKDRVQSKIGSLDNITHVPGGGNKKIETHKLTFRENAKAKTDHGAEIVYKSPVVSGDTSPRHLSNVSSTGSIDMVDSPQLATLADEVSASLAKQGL
The experiment in a line: proximity ligation; PLA in fixed hippocampal brain slices of 18-month-old control, hTau and hTau;TgBIN1 mice; primary antibodies BIN1-99D or α-tubulin DM1A (mouse) and Tau (rabbit); PLA spot density per tissue area. Particulars: partners not purified.

B1: phospho-T348 CLAP (334-355) peptide (peptide)
peptide: QLRKGPPVPPPPKH[pT]PSKEVKQ
notes: residues 334-355 of the CLAP domain of BIN1 isoform 1 (neuronal isoform), phosphorylated on T348; unlabeled peptide, 4 mM stock solution; also called phospho-CLAP (334-355)
The Kd is the equilibrium constant for the complex coming apart. As for B1, the Kd in experiment [1] was determined as 736 ± 70 µM.

B2: CLAP (334-355) peptide (peptide)
peptide: QLRKGPPVPPPPKHTPSKEVKQ
notes: residues 334-355 of the CLAP domain of BIN1 isoform 1 (neuronal isoform); unlabeled peptide, 4 mM stock solution
On to B2, for which, in experiment [1], the Kd was determined as 71 ± 13 µM.

B3: human BIN1 (transgene, hTau;TgBIN1 mouse hippocampus) (natural protein, UniProt O00499 1-593, looked up)
chain: MAEMGSKGVTAGKIASNVQKKLTRAQEKVLQKLGKADETKDEQFEQCVQNFNKQLTEGTRLQKDLRTYLASVKAMHEASKKLNECLQEVYEPDWPGRDEANKIAENNDLLWMDYHQKLVDQALLTMDTYLGQFPDIKSRIAKRGRKLVDYDSARHHYESLQTAKKKDEAKIAKPVSLLEKAAPQWCQGKLQAHLVAQTNLLRNQAEEELIKAQKVFEEMNVDLQEELPSLWNSRVGFYVNTFQSIAGLEENFHKEMSKLNQNLNDVLVGLEKQHGSNTFTVKAQPSDNAPAKGNKSPSPPDGSPAATPEIRVNHEPEPAGGATPGATLPKSPSQLRKGPPVPPPPKHTPSKEVKQEQILSLFEDTFVPEISVTTPSQFEAPGPFSEQASLLDLDFDPLPPVTSPVKAPTPSGQSIPWDLWEPTESPAGSLPSGEPSAAEGTFAVSWPSQTAEPGPAQPAEASEVAGGTQPAAGAQEPGETAASEAASSSLPAVVVETFPATVNGTVEGGSGAGRLDLPPGFMFKVQAQHDYTATDTDELQLKAGDVVLVIPFQNPEEQDEGWLMGVKESDWNQHKELEKCRGVFPENFTERVP
notes: human BIN1 expressed under the control of its own promoter; endogenous mouse Bin1 is present in the same tissue; also called hBIN1; Amphiphysin 2; source: transgenic mouse (hTau;TgBIN1), hippocampus, fixed brain slices
As for B3, in experiment [2], the “fold PLA spot density against control mice” value was determined as 6.2 fold and the “fold PLA spot density against hTau mice” value was determined as 2.7 fold.
